Columns and labels:
Experiment in all cases: cell-based or functional assay
[1] = biological target: VP16CfEcRCDEF (VP16 activation domain fused to CfEcRCDEF) (Choristoneura fumiferana)
[2] = biological target: VP16DmEcRCDEF (VP16 activation domain fused to DmEcRCDEF) (Drosophila melanogaster)
[3] = biological target: Full length MmRXR (mouse Mus musculus RXRalpha) (Mus musculus) (UniProt P28700)
[4] = biological target: VP16MmRXRDEF (VP16 activation domain fused to the DEF domains of mouse RXR) (Mus musculus)
[5] = biological target: VP16CfUSPDEF (VP16 activation domain fused to the D, E and F domains of Choristoneura fumiferana USP) (Choristoneura fumiferana)

Chain of Full length MmRXR (mouse Mus musculus RXRalpha) (Mus musculus) (P28700 whole entry, the tested form may be a part): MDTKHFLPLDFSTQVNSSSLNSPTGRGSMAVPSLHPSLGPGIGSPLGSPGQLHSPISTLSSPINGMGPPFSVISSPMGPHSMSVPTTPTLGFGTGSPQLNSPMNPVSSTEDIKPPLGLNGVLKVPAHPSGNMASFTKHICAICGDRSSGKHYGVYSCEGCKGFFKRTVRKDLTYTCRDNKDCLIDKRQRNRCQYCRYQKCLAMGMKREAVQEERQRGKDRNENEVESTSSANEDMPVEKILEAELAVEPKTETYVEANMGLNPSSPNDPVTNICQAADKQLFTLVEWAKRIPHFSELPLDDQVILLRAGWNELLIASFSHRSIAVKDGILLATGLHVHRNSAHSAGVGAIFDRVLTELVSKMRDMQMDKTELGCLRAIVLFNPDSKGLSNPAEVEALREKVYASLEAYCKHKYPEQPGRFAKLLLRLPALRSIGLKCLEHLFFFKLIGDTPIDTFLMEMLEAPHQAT

Q: For “GAL4MmRXRDEF (GAL4 DNA binding domain fused to MmRXRDEF)”, which Mean Fold Activation Through N-(2-ethyl-3-methoxybenzoyl)-N'-(3,5-dimethylbenzoyl)-N'-t-butylhydrazine; pGAL4RELuc reporter, 3T3 cells (switch 1.3) [1] is on record?
A: The Mean Fold Activation Through N-(2-ethyl-3-methoxybenzoyl)-N'-(3,5-dimethylbenzoyl)-N'-t-butylhydrazine; pGAL4RELuc reporter, 3T3 cells (switch 1.3) was 47 fold.

Q: And the Mean Fold Activation Through N-(2-ethyl-3-methoxybenzoyl)-N'-(3,5-dimethylbenzoyl)-N'-t-butylhydrazine; pGAL4RELuc reporter, 293 cells (switch 1.3) [1]?
A: Its Mean Fold Activation Through N-(2-ethyl-3-methoxybenzoyl)-N'-(3,5-dimethylbenzoyl)-N'-t-butylhydrazine; pGAL4RELuc reporter, 293 cells (switch 1.3) is 17 fold.

Q: What about the Mean Fold Activation with 50 µM N-(2-ethyl-3-methoxybenzoyl)-N'-(3,5-dimethylbenzoyl)-N'-t-butylhydrazine; pGAL4RELuc reporter, CHO cells (switch 1.3) [1] of the same substance?
A: The Mean Fold Activation with 50 µM N-(2-ethyl-3-methoxybenzoyl)-N'-(3,5-dimethylbenzoyl)-N'-t-butylhydrazine; pGAL4RELuc reporter, CHO cells (switch 1.3) was 85 fold.

Q: What about the Mean Fold Induction at 1.0 µM Concentration of Muristerone A; reporter gene, 3T3 cells (switch 1.3) [1] of the same substance?
A: Its Mean Fold Induction at 1.0 µM Concentration of Muristerone A; reporter gene, 3T3 cells (switch 1.3) is 1 fold.

Q: What about the Mean Fold Induction at 1.0 µM Concentration of N'-(3,4-(1,2-ethylenedioxy)-2-methylbenzoyl)-N'-(3,5-dimethylbenzoyl)-N'-tert-butylhydrazine; reporter gene, 3T3 cells (switch 1.3) [1] of the same substance?
A: The Mean Fold Induction at 1.0 µM Concentration of N'-(3,4-(1,2-ethylenedioxy)-2-methylbenzoyl)-N'-(3,5-dimethylbenzoyl)-N'-tert-butylhydrazine; reporter gene, 3T3 cells (switch 1.3) was 54 fold.

Q: What about the Mean Fold Induction at 1.0 µM Concentration of N-(2-ethyl-3-methoxybenzoyl)-N'-(3,5-dimethylbenzoyl)-N'-tert-butylhydrazine; reporter gene, 3T3 cells (switch 1.3) [1] of the same substance?
A: Its Mean Fold Induction at 1.0 µM Concentration of N-(2-ethyl-3-methoxybenzoyl)-N'-(3,5-dimethylbenzoyl)-N'-tert-butylhydrazine; reporter gene, 3T3 cells (switch 1.3) is 71 fold.

Q: And the Mean Fold Induction at 1.0 µM Concentration of Ponasterone A; reporter gene, 3T3 cells (switch 1.3) [1]?
A: The Mean Fold Induction at 1.0 µM Concentration of Ponasterone A; reporter gene, 3T3 cells (switch 1.3) was 1 fold.

Q: What about the Mean Fold Activation Through N-(2-ethyl-3-methoxybenzoyl)-N'-(3,5-dimethylbenzoyl)-N'-t-butylhydrazine; pGAL4RELuc reporter, 3T3 cells (switch 1.4) [2] of the same substance?
A: The Mean Fold Activation Through N-(2-ethyl-3-methoxybenzoyl)-N'-(3,5-dimethylbenzoyl)-N'-t-butylhydrazine; pGAL4RELuc reporter, 3T3 cells (switch 1.4) was 269 fold.

Q: What about the Mean Fold Activation Through N-(2-ethyl-3-methoxybenzoyl)-N'-(3,5-dimethylbenzoyl)-N'-t-butylhydrazine; pGAL4RELuc reporter, 293 cells (switch 1.4) [2] of the same substance?
A: Its Mean Fold Activation Through N-(2-ethyl-3-methoxybenzoyl)-N'-(3,5-dimethylbenzoyl)-N'-t-butylhydrazine; pGAL4RELuc reporter, 293 cells (switch 1.4) is 3 fold.

Q: What about the Mean Fold Activation with 50 µM N-(2-ethyl-3-methoxybenzoyl)-N'-(3,5-dimethylbenzoyl)-N'-t-butylhydrazine; pGAL4RELuc reporter, CHO cells (switch 1.4) [2] of the same substance?
A: Its Mean Fold Activation with 50 µM N-(2-ethyl-3-methoxybenzoyl)-N'-(3,5-dimethylbenzoyl)-N'-t-butylhydrazine; pGAL4RELuc reporter, CHO cells (switch 1.4) is 312 fold.

Q: Which Mean Fold Activation Through N-(2-ethyl-3-methoxybenzoyl)-N'-(3,5-dimethylbenzoyl)-N'-t-butylhydrazine; pIND(SP1)LacZ reporter, 3T3 cells (switch 1.9) [3] does the source give for “CfVgRXR EcR component: truncated CfEcR comprising a partial A/B domain and the complete CDEF domains, fused to VP16AD” here?
A: The Mean Fold Activation Through N-(2-ethyl-3-methoxybenzoyl)-N'-(3,5-dimethylbenzoyl)-N'-t-butylhydrazine; pIND(SP1)LacZ reporter, 3T3 cells (switch 1.9) was 19 fold.

Q: And the Mean Fold Activation Through N-(2-ethyl-3-methoxybenzoyl)-N'-(3,5-dimethylbenzoyl)-N'-t-butylhydrazine; pIND(SP1)LacZ reporter, 293 cells (switch 1.9) [3]?
A: Its Mean Fold Activation Through N-(2-ethyl-3-methoxybenzoyl)-N'-(3,5-dimethylbenzoyl)-N'-t-butylhydrazine; pIND(SP1)LacZ reporter, 293 cells (switch 1.9) is 12 fold.

Q: And the Mean Fold Activation with 50 µM N-(2-ethyl-3-methoxybenzoyl)-N'-(3,5-dimethylbenzoyl)-N'-t-butylhydrazine; pIND(SP1)LacZ reporter, CHO cells (switch 1.9) [3]?
A: Its Mean Fold Activation with 50 µM N-(2-ethyl-3-methoxybenzoyl)-N'-(3,5-dimethylbenzoyl)-N'-t-butylhydrazine; pIND(SP1)LacZ reporter, CHO cells (switch 1.9) is 27 fold.

Q: Which Mean Fold Activation Through N-(2-ethyl-3-methoxybenzoyl)-N'-(3,5-dimethylbenzoyl)-N'-t-butylhydrazine; pGAL4RELuc reporter, 3T3 cells (switch 1.1) [4] does the source give for “GAL4CfEcRDEF (GAL4 DNA binding domain fused to the D, E and F domains of Choristoneura fumiferana EcR)” here?
A: The Mean Fold Activation Through N-(2-ethyl-3-methoxybenzoyl)-N'-(3,5-dimethylbenzoyl)-N'-t-butylhydrazine; pGAL4RELuc reporter, 3T3 cells (switch 1.1) was 1120 fold.

Q: What about the Mean Fold Activation Through N-(2-ethyl-3-methoxybenzoyl)-N'-(3,5-dimethylbenzoyl)-N'-t-butylhydrazine; pGAL4RELuc reporter, 293 cells (switch 1.1) [4] of the same substance?
A: Its Mean Fold Activation Through N-(2-ethyl-3-methoxybenzoyl)-N'-(3,5-dimethylbenzoyl)-N'-t-butylhydrazine; pGAL4RELuc reporter, 293 cells (switch 1.1) is 125 fold.

Q: And the Mean Fold Activation with 50 µM N-(2-ethyl-3-methoxybenzoyl)-N'-(3,5-dimethylbenzoyl)-N'-t-butylhydrazine; pGAL4RELuc reporter, CHO cells (switch 1.1) [4]?
A: The Mean Fold Activation with 50 µM N-(2-ethyl-3-methoxybenzoyl)-N'-(3,5-dimethylbenzoyl)-N'-t-butylhydrazine; pGAL4RELuc reporter, CHO cells (switch 1.1) was 267 fold.

Q: And the Mean Fold Induction at 1.0 µM Concentration of Muristerone A; reporter gene, 3T3 cells (switch 1.1) [4]?
A: The Mean Fold Induction at 1.0 µM Concentration of Muristerone A; reporter gene, 3T3 cells (switch 1.1) was 1 fold.

Q: What about the Mean Fold Induction at 1.0 µM Concentration of N'-(3,4-(1,2-ethylenedioxy)-2-methylbenzoyl)-N'-(3,5-dimethylbenzoyl)-N'-tert-butylhydrazine; reporter gene, 3T3 cells (switch 1.1) [4] of the same substance?
A: Its Mean Fold Induction at 1.0 µM Concentration of N'-(3,4-(1,2-ethylenedioxy)-2-methylbenzoyl)-N'-(3,5-dimethylbenzoyl)-N'-tert-butylhydrazine; reporter gene, 3T3 cells (switch 1.1) is 601 fold.

Q: What about the Mean Fold Induction at 1.0 µM Concentration of N-(2-ethyl-3-methoxybenzoyl)-N'-(3,5-dimethylbenzoyl)-N'-tert-butylhydrazine; reporter gene, 3T3 cells (switch 1.1) [4] of the same substance?
A: Its Mean Fold Induction at 1.0 µM Concentration of N-(2-ethyl-3-methoxybenzoyl)-N'-(3,5-dimethylbenzoyl)-N'-tert-butylhydrazine; reporter gene, 3T3 cells (switch 1.1) is 116 fold.

Q: What about the Mean Fold Induction at 1.0 µM Concentration of Ponasterone A; reporter gene, 3T3 cells (switch 1.1) [4] of the same substance?
A: The Mean Fold Induction at 1.0 µM Concentration of Ponasterone A; reporter gene, 3T3 cells (switch 1.1) was 1 fold.

Q: What about the Mean Fold Activation Through N-(2-ethyl-3-methoxybenzoyl)-N'-(3,5-dimethylbenzoyl)-N'-t-butylhydrazine; pGAL4RELuc reporter, 3T3 cells (switch 1.2) [5] of the same substance?
A: Its Mean Fold Activation Through N-(2-ethyl-3-methoxybenzoyl)-N'-(3,5-dimethylbenzoyl)-N'-t-butylhydrazine; pGAL4RELuc reporter, 3T3 cells (switch 1.2) is 2 fold.

Q: What about the Mean Fold Activation Through N-(2-ethyl-3-methoxybenzoyl)-N'-(3,5-dimethylbenzoyl)-N'-t-butylhydrazine; pGAL4RELuc reporter, 293 cells (switch 1.2) [5] of the same substance?
A: Its Mean Fold Activation Through N-(2-ethyl-3-methoxybenzoyl)-N'-(3,5-dimethylbenzoyl)-N'-t-butylhydrazine; pGAL4RELuc reporter, 293 cells (switch 1.2) is 2 fold.

Q: What about the Mean Fold Activation with 50 µM N-(2-ethyl-3-methoxybenzoyl)-N'-(3,5-dimethylbenzoyl)-N'-t-butylhydrazine; pGAL4RELuc reporter, CHO cells (switch 1.2) [5] of the same substance?
A: The Mean Fold Activation with 50 µM N-(2-ethyl-3-methoxybenzoyl)-N'-(3,5-dimethylbenzoyl)-N'-t-butylhydrazine; pGAL4RELuc reporter, CHO cells (switch 1.2) was 2 fold.

Q: Which Mean Fold Activation Through N-(2-ethyl-3-methoxybenzoyl)-N'-(3,5-dimethylbenzoyl)-N'-t-butylhydrazine; pGAL4RELuc reporter, 3T3 cells (switch 1.5) [1] does the source give for “GAL4CfUSPDEF (GAL4 DNA binding domain fused to CfUSPDEF)” here?
A: Its Mean Fold Activation Through N-(2-ethyl-3-methoxybenzoyl)-N'-(3,5-dimethylbenzoyl)-N'-t-butylhydrazine; pGAL4RELuc reporter, 3T3 cells (switch 1.5) is 3 fold.

Q: And the Mean Fold Activation Through N-(2-ethyl-3-methoxybenzoyl)-N'-(3,5-dimethylbenzoyl)-N'-t-butylhydrazine; pGAL4RELuc reporter, 293 cells (switch 1.5) [1]?
A: The Mean Fold Activation Through N-(2-ethyl-3-methoxybenzoyl)-N'-(3,5-dimethylbenzoyl)-N'-t-butylhydrazine; pGAL4RELuc reporter, 293 cells (switch 1.5) was 2 fold.

Q: What about the Mean Fold Activation with 50 µM N-(2-ethyl-3-methoxybenzoyl)-N'-(3,5-dimethylbenzoyl)-N'-t-butylhydrazine; pGAL4RELuc reporter, CHO cells (switch 1.5) [1] of the same substance?
A: Its Mean Fold Activation with 50 µM N-(2-ethyl-3-methoxybenzoyl)-N'-(3,5-dimethylbenzoyl)-N'-t-butylhydrazine; pGAL4RELuc reporter, CHO cells (switch 1.5) is 2 fold.

Q: With “Drosophila melanogaster EcR with a modified DNABD fused to VP16AD (EcR component of the DmVgRXR system, Invitrogen)” as the substance, how does the Mean Fold Activation Through N-(2-ethyl-3-methoxybenzoyl)-N'-(3,5-dimethylbenzoyl)-N'-t-butylhydrazine; pIND(SP1)LacZ reporter, 3T3 cells (switch 1.8) [3] read?
A: The Mean Fold Activation Through N-(2-ethyl-3-methoxybenzoyl)-N'-(3,5-dimethylbenzoyl)-N'-t-butylhydrazine; pIND(SP1)LacZ reporter, 3T3 cells (switch 1.8) was 21 fold.

Q: What about the Mean Fold Activation Through N-(2-ethyl-3-methoxybenzoyl)-N'-(3,5-dimethylbenzoyl)-N'-t-butylhydrazine; pIND(SP1)LacZ reporter, 293 cells (switch 1.8) [3] of the same substance?
A: Its Mean Fold Activation Through N-(2-ethyl-3-methoxybenzoyl)-N'-(3,5-dimethylbenzoyl)-N'-t-butylhydrazine; pIND(SP1)LacZ reporter, 293 cells (switch 1.8) is 21 fold.

Q: What about the Mean Fold Activation with 50 µM N-(2-ethyl-3-methoxybenzoyl)-N'-(3,5-dimethylbenzoyl)-N'-t-butylhydrazine; pIND(SP1)LacZ reporter, CHO cells (switch 1.8) [3] of the same substance?
A: Its Mean Fold Activation with 50 µM N-(2-ethyl-3-methoxybenzoyl)-N'-(3,5-dimethylbenzoyl)-N'-t-butylhydrazine; pIND(SP1)LacZ reporter, CHO cells (switch 1.8) is 14 fold.
